± gives the standard deviation of the averaged measurements.
Legend:
[1] = system: VchCAST RNA-guided transposition machinery (E. coli BL21(DE3) host, lacZ target); test: relative integration efficiency (T-RL orientation) vs wild-type transposon end (log2 (normalized fold change)); transposon end mutated: right end (5 bp flank + 75 bp right end); higher = more efficient transposition
Method in brief: (§1)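 A T7-driven effector plasmid encoding a CRISPR array, tniQ-cas8-cas7-cas6 and tnsA-tnsB-tnsC was co-transformed into E. coli BL21(DE3) together with a pUC57 mini-transposon donor holding barcoded pools of 1549 left-end or 1849 right-end variants. Transformants were plated with 0.1 mM IPTG at 37°C for 18 h. Illumina sequencing of PCR-amplified input plasmids and genomic integration junctions gave barcode abundances, and relative integration efficiency is their output/input fold change, normalised to reference barcodes and log-transformed.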

[2] = system: VchCAST RNA-guided transposition machinery (E. coli BL21(DE3) host, lacZ target); test: relative integration efficiency (T-LR orientation) vs wild-type transposon end (log2 (normalized fold change)); transposon end mutated: right end (5 bp flank + 75 bp right end); higher = more efficient transposition
Method in brief: as §1

Sequence | relative integration efficiency (log2) [1] | relative integration efficiency (log2) [2]
ACATTTGTTGATACAACCAAAAAATGATAATTACACCCATAAATTGATAATAATGACACCGAATTTAACTATAACGCTCTGATCATAGTCAGACCAACATTGCTACGACCCGTATTCGCACCGACAC | -1.3 ± 0.18 | 2.17 ± 0.081
ACATTTGTTGATACAACCAAAAAATGATAATTACACCCATAAATTGATAATGATGACACCGAATTTAACTATAACGCTCTGATCATAGTCAGACCAACATTGCTACGACCCGTATTCGCACCGACAC | -1.42 ± 0.27 | 2.11 ± 0.27
ACATTTGTTGATACAACCAAAAAATGATAATTACACCCATAAATTGATAATTGTGACACCGAATTTAACTATAACGCTCTGATCATAGTCAGACCAACATTGCTACGACCCGTATTCGCACCGACAC | -1.12 ± 0.18 | 2.44 ± 0.069
ACATTTGTTGATACAACCAATAAAAGATAATTACACCCATAAATTGATAATTGTGACACCGAATTTAACTATAACGCTCTGATCATAGTCAGACCAACATTGCTACGACCCGTATTCGCACCGACAC | -2 ± 0.21 | 1.26 ± 0.029
ACATTTGTTGATACAACCAATAAAAGATTAATACCCCCATTAATTGATAATTGTGACACCGAATTTAACTATAACGCTCTGATCATAGTCAGACCAACATTGCTACGACCCGTATTCGCACCGACAC | -5.12 ± 0.085 | -2.97 ± 0.16
ACATTTGTTGATACAACCAATAAAAGATTATTACCCCCATTAATTGATAATGATGACACCGAATTTAACTATAACGCTCTGATCATAGTCAGACCAACATTGCTACGACCCGTATTCGCACCGACAC | -4.62 ± 0.48 | -1.84 ± 0.29
ACATTTGTTGATACAACCAATAAATGATAAATACACCCATAAATTGATAATGATGACACCGAATTTAACTATAACGCTCTGATCATAGTCAGACCAACATTGCTACGACCCGTATTCGCACCGACAC | -1.58 ± 0.26 | 1.75 ± 0.069
ACATTTGTTGATACAACCAATAAATGATAATTACACCCATAAATTGATAATAATGACACCGAATTTAACTATAACGCTCTGATCATAGTCAGACCAACATTGCTACGACCCGTATTCGCACCGACAC | -1.44 ± 0.28 | 2.08 ± 0.21
ACATTTGTTGATACAACCAATAAATGATAATTACACCCATAAATTGATAATGATGACACCGAATTTAACTATAACGCTCTGATCATAGTCAGACCAACATTGCTACGACCCGTATTCGCACCGACAC | -1.56 ± 0.22 | 1.92 ± 0.035
ACATTTGTTGATACAACCAATAAATGATAATTACACCCATAAATTGATAATTATCACACCCATAAATTGATATTGCCTCTGATCATAGTCAGACCAACATTGCTACGACCCGTATTCGCACCGACAC | -0.395 ± 0.089 | -0.407 ± 0.67
ACATTTGTTGATACAACCAATAAATGATAATTACACCCATAAATTGATAATTGTGACACCGAATTTAACTATAACGCTCTGATCATAGTCAGACCAACATTGCTACGACCCGTATTCGCACCGACAC | -1.29 ± 0.29 | 2.09 ± 0.064
ACATTTGTTGATACAACCAATAAATGATAATTACACCCATTAATTGATAATAATGACACCGAATTTAACTATAACGCTCTGATCATAGTCAGACCAACATTGCTACGACCCGTATTCGCACCGACAC | -1.48 ± 0.29 | 1.91 ± 0.054
ACATTTGTTGATACAACCAATAAATGATAATTACCCCCATAAATTGATAATTGTGACACCGAATTTAACTATAACGCTCTGATCATAGTCAGACCAACATTGCTACGACCCGTATTCGCACCGACAC | -2.18 ± 0.42 | 1.59 ± 0.12
ACATTTGTTGATACAACCAATAAATGATTATTACACCCATAAATTGATAATAATGACACCGAATTTAACTATAACGCTCTGATCATAGTCAGACCAACATTGCTACGACCCGTATTCGCACCGACAC | 0.0749 ± 0.43 | 3.45 ± 0.19
ACATTTGTTGATACAACCAATTTATGATAATTACACCCATAAATTGATAATTATCACACCCATAAATTGATATTGCCTCTGATCATAGTCAGACCAACATTGCTACGACCCGTATTCGCACCGACAC | -0.308 ± 0.066 | -0.66 ± 0.3
ACATTTGTTGATACAACCAATTTTTGATAATTACACCCAATTTATGATAATTATCACACCCAATTTATGATATTGCCTCTGATCATAGTCAGACCAACATTGCTACGACCCGTATTCGCACCGACAC | -1.89 ± 0.22 | -1.18 ± 0.21
ACATTTGTTGATACAACCAGAAAATGATAATTACACCCAGAAATTGATAATTATCACACCCAGAAATTGATATTGCCTCTGATCATAGTCAGACCAACATTGCTACGACCCGTATTCGCACCGACAC | -5.0799 ± 0.0039 | -3.58 ± 1.1

Reference: the supplement of paper PMC10201428
